From US20110110942A1

Molecular target: p75 (Homo sapiens (Human)) (UniProt P08138)
Assay: ELISA, format not described

Sequence of UniProt P08138 (P08138 29-250 limits assumed): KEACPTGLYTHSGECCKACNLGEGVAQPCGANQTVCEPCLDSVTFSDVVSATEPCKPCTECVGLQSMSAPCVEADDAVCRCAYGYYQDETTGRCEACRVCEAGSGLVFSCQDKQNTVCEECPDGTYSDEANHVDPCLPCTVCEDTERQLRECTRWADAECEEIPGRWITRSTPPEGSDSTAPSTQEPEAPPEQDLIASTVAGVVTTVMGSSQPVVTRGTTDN

## Amyloid Precursor Protein (from UniProt P05067 18-286) (ligand)
  EC50: 300 nM
